# Assays:
# Assay in all cases: crystal structure; L1 pentamers (Cys175 to Ser, limited trypsin digestion) at ~5 mg/mL, vapour diffusion at 20 °C
# [1] = target: H58-33BC chimeric L1 pentamer (Human papillomavirus type 58)
# [2] = target: H58-33BC-52HI chimeric L1 pentamer (Human papillomavirus type 58)
# [3] = target: HPV33 L1 pentamer (Human papillomavirus type 33)
# [4] = target: HPV52 L1 pentamer (Human papillomavirus type 52)
substance,measurement,setting,value
H58-33BC chimeric L1 pentamer (complex),stoichiometry N,[1],5
H58-33BC-52HI chimeric L1 pentamer (complex),stoichiometry N,[2],5
HPV33 L1 pentamer (complex),stoichiometry N,[3],5
HPV52 L1 pentamer (complex),stoichiometry N,[4],5

# — paper PMC6299097
